Assay results: paper doi:10.1101/2025.11.18.25340485 (medRxiv, 2025)

Target: T1, WT-RBD (receptor-binding domain of the SARS-CoV-2 wild-type, Wuhan-Hu-1, spike protein) (SARS-CoV-2, UniProt P0DTC2)
T1 construct: not shown: His6, C-terminal, kept
Assay: BLI
Details: both partners purified

B1: CC25.4 Fab (Fab, V domains shown)
VH: QVQLVQSGAEVKKPGASVKVSCKASGYTFTDYFLHWVRQAPGQGLEWMGWINPDSGGTNYAQRFQGRVTMTRDTSISTAYMEVSRLRSDDTAVYYCARDNERYQMQNYYHYYGMDVWGQGTTVTVVS
VL: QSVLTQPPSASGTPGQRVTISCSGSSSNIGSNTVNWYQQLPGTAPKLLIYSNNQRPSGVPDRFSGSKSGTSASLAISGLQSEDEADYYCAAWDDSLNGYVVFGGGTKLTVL
notes: also called class V antibody; source: ExpiCHO cells, co-transfected, purified (CaptureSelect CH1-XL, SEC)
Kd: 400 pM
